The chains are these.
B1: Serine/threonine-protein kinase A-Raf, residues 21 to 89; numbered along this chain, P10398 (parent)
chain: VKVYLPNKQRTVVTVRDGMSVYDSLDKALKVRGLNQDCCVVYRLIKGRKTVTAWDTAIAPLDGEELIVE

± gives the uncertainty stated by the source.

The variants in the series derive from B1. Briefly: abundance fitness (aPCA) (normalised: wild type 0, dead -1); higher = more abundant; growth selection in yeast, the domain comes from the species named. Conditions: Homo sapiens.
For the variant C39N, the abundance fitness was -0.848 ± 0.2.

As to C39G, the abundance fitness is -0.944 ± 0.18.

Turning to C39H, the abundance fitness was -0.171 ± 0.093.

For C39E, the abundance fitness was -1.16 ± 0.36.

With C39W, the abundance fitness is -0.841 ± 0.38.

For the variant C39F, the abundance fitness is -0.466 ± 0.13.

Take G63T: the abundance fitness is -0.128 ± 0.084.

For the variant G63D, the abundance fitness was -0.187 ± 0.16.

Turning to G63S, the abundance fitness is -0.107 ± 0.098.

G63Q: the abundance fitness is -0.466 ± 0.1.

In the case of G63F, the abundance fitness is -0.279 ± 0.1.

Consider K30L, for which the abundance fitness is -0.561 ± 0.087.

As to K30F, the abundance fitness is -0.574 ± 0.12.

Turning to K30S, the abundance fitness is -0.265 ± 0.075.

Consider K30A, for which the abundance fitness is -0.218 ± 0.047.

On to K30E, for which the abundance fitness is -0.336 ± 0.088.

Regarding R48W, the abundance fitness is -0.535 ± 0.082.

On to R48L, for which the abundance fitness was -0.307 ± 0.062.

Consider R48Q, for which the abundance fitness was -0.094 ± 0.095.

Regarding R48D, the abundance fitness was -0.271 ± 0.094.

For R48G, the abundance fitness was -0.479 ± 0.056.

Take R48K: the abundance fitness turned out to be 0.097 ± 0.085.

In the case of R48H, the abundance fitness was -0.025 ± 0.38.

For Q36T, the abundance fitness was -0.162 ± 0.069.

Regarding Q36G, the abundance fitness was -0.398 ± 0.09.

On to Q36F, for which the abundance fitness is -0.134 ± 0.12.

For the variant Q36K, the abundance fitness was determined as 0.046 ± 0.15.

Consider Q36Y, for which the abundance fitness is -0.169 ± 0.17.

Q36R: the abundance fitness was 0.058 ± 0.083.

In the case of Q36M, the abundance fitness was -0.18 ± 0.082.

For Q36A, the abundance fitness is -0.043 ± 0.071.

Turning to Q36I, the abundance fitness was -0.043 ± 0.12.

Q36S: the abundance fitness was -0.178 ± 0.072.

For L25H, the abundance fitness was -1.06 ± 0.14.

For the variant L25A, the abundance fitness was -0.919 ± 0.12.

As for L25K, the abundance fitness is -0.542 ± 0.09.

In the case of L25D, the abundance fitness was -0.717 ± 0.11.

On to L25I, for which the abundance fitness is -0.573 ± 0.17.

Take P60D: the abundance fitness amounted to 0.138 ± 0.12.

Take P60W: the abundance fitness was -0.199 ± 0.075.

Regarding P60S, the abundance fitness was 0.098 ± 0.08.

As for P60V, the abundance fitness is -0.04 ± 0.051.

Consider Y22Q, for which the abundance fitness stood at 0.041 ± 0.054.

For Y22H, the abundance fitness amounted to 0.024 ± 0.2.

Take Y22E: the abundance fitness was -0.144 ± 0.085.

As for Y22C, the abundance fitness is -0.176 ± 0.12.

Take I58Y: the abundance fitness was determined as 0.146 ± 0.088.

On to I58T, for which the abundance fitness is -0.729 ± 0.097.

Consider I58Q, for which the abundance fitness is -0.952 ± 0.2.

For I58M, the abundance fitness was -0.004 ± 0.065.

On to V15S, for which the abundance fitness was -0.179 ± 0.053.

As for V15C, the abundance fitness was determined as 0 ± 0.054.

As to V15T, the abundance fitness was -0.147 ± 0.067.

For the variant V15L, the abundance fitness was -0.105 ± 0.042.

As to V15R, the abundance fitness was -0.822 ± 0.087.

With V15F, the abundance fitness is -0.001 ± 0.075.

As to V15K, the abundance fitness is -0.797 ± 0.19.

In the case of V15D, the abundance fitness was -0.33 ± 0.1.

V15I: the abundance fitness is -0.088 ± 0.17.

Turning to K49F, the abundance fitness was -0.63 ± 0.22.

As for K49V, the abundance fitness is -0.934 ± 0.17.

In the case of K49C, the abundance fitness is -0.672 ± 0.34.

Take T14K: the abundance fitness is -0.008 ± 0.061.

Regarding T14P, the abundance fitness is -0.005 ± 0.09.

For T14E, the abundance fitness is -0.138 ± 0.055.

With T14W, the abundance fitness is -0.098 ± 0.067.

Turning to K2D, the abundance fitness is -0.416 ± 0.26.

Consider K2A, for which the abundance fitness is -0.242 ± 0.082.

For K2M, the abundance fitness is -0.217 ± 0.11.

Turning to K2T, the abundance fitness was found to be 0.057 ± 0.065.

Consider K2F, for which the abundance fitness was -0.466 ± 0.33.

Consider K2W, for which the abundance fitness is -0.314 ± 0.15.

V12A: the abundance fitness is -0.503 ± 0.077.

As for V12H, the abundance fitness was -0.115 ± 0.14.

For the variant V12F, the abundance fitness was -0.254 ± 0.19.

With V12N, the abundance fitness was -0.325 ± 0.17.

With V12Q, the abundance fitness was -0.18 ± 0.069.

For the variant V12P, the abundance fitness is -0.748 ± 0.26.

For the variant V12W, the abundance fitness was -0.067 ± 0.048.

Regarding Y4K, the abundance fitness was 0.069 ± 0.059.

Take Y4F: the abundance fitness is -0.063 ± 0.077.

For the variant Y4A, the abundance fitness is -0.217 ± 0.061.

As to Y4Q, the abundance fitness amounted to 0.009 ± 0.059.

In the case of T52L, the abundance fitness was 0.052 ± 0.047.

T52D: the abundance fitness was -0.978 ± 0.26.

In the case of T52F, the abundance fitness is -0.708 ± 0.29.

As to T52M, the abundance fitness turned out to be 0.118 ± 0.05.

For the variant T52V, the abundance fitness was 0.117 ± 0.059.

Consider T52R, for which the abundance fitness is -0.529 ± 0.063.

As to V41S, the abundance fitness is -0.515 ± 0.17.

Consider V41T, for which the abundance fitness was -0.8 ± 0.28.

Turning to V41Y, the abundance fitness was -0.938 ± 0.38.

Take V41P: the abundance fitness was -0.555 ± 0.15.

As to V1C, the abundance fitness was -0.184 ± 0.28.

Turning to V1S, the abundance fitness is -0.528 ± 0.25.

Take V1F: the abundance fitness is -0.358 ± 0.21.

As to S20R, the abundance fitness was -0.352 ± 0.044.

Consider S20E, for which the abundance fitness is -0.913 ± 0.25.

For the variant S20V, the abundance fitness is -0.876 ± 0.16.

With S20F, the abundance fitness was -0.844 ± 0.32.

Consider S20T, for which the abundance fitness amounted to 0 ± 0.073.

In the case of Q9P, the abundance fitness was -0.876 ± 0.15.

With Q9G, the abundance fitness was -0.297 ± 0.053.

With Q9L, the abundance fitness was -0.455 ± 0.063.

For the variant M19V, the abundance fitness is -0.057 ± 0.057.

In the case of R43E, the abundance fitness was -0.824 ± 0.3.

With R43M, the abundance fitness was -1 ± 0.23.

For R43Q, the abundance fitness was -0.102 ± 0.076.

As to R43G, the abundance fitness was -0.907 ± 0.13.

E69V: the abundance fitness was -0.43 ± 0.098.

Take E69S: the abundance fitness was -0.463 ± 0.13.

Turning to E69R, the abundance fitness was -0.635 ± 0.19.

As to E69A, the abundance fitness is -0.497 ± 0.081.

Take E69F: the abundance fitness was -0.884 ± 0.23.

Consider E69L, for which the abundance fitness was -0.889 ± 0.18.

With V68A, the abundance fitness is -0.391 ± 0.41.

For V68I, the abundance fitness is -0.127 ± 0.22.

Take V21P: the abundance fitness is -0.99 ± 0.23.

V21K: the abundance fitness is -0.493 ± 0.25.

Turning to V21C, the abundance fitness is -0.707 ± 0.22.

For the variant V21S, the abundance fitness was -0.858 ± 0.2.

In the case of V21A, the abundance fitness was -0.273 ± 0.08.

On to V21E, for which the abundance fitness was -0.65 ± 0.16.

As to V21T, the abundance fitness is -0.964 ± 0.24.

Consider L44I, for which the abundance fitness was 0.073 ± 0.082.

Regarding L44Y, the abundance fitness is -0.037 ± 0.2.

As to L44K, the abundance fitness was -0.031 ± 0.076.

With L44R, the abundance fitness is -0.108 ± 0.044.

As to L44A, the abundance fitness was -0.475 ± 0.07.

Turning to L44N, the abundance fitness was -0.082 ± 0.17.

With G33D, the abundance fitness is -0.416 ± 0.2.

In the case of G33L, the abundance fitness is -0.942 ± 0.2.

Turning to G33P, the abundance fitness is -0.953 ± 0.24.

G33E: the abundance fitness was -0.26 ± 0.22.

In the case of G33C, the abundance fitness is -0.694 ± 0.2.

Turning to C38N, the abundance fitness came out at 0.141 ± 0.3.

Consider C38V, for which the abundance fitness is -0.075 ± 0.063.

For the variant C38R, the abundance fitness was -0.094 ± 0.051.

For the variant K8W, the abundance fitness was -0.355 ± 0.054.

Take K8L: the abundance fitness was -0.363 ± 0.037.

Regarding K8M, the abundance fitness is -0.107 ± 0.042.

On to K8I, for which the abundance fitness is -0.683 ± 0.16.

K8F: the abundance fitness was -0.363 ± 0.072.

K8R: the abundance fitness was -0.005 ± 0.04.

K8P: the abundance fitness is -1.02 ± 0.18.

Consider V40T, for which the abundance fitness is -0.164 ± 0.072.

As to V40I, the abundance fitness is -0.09 ± 0.15.

As for V40C, the abundance fitness was -0.087 ± 0.072.

In the case of V40M, the abundance fitness was -0.058 ± 0.098.

On to V40A, for which the abundance fitness is -0.021 ± 0.055.

Turning to V40R, the abundance fitness is -0.131 ± 0.051.

For the variant V40L, the abundance fitness was -0.259 ± 0.057.

Turning to P6L, the abundance fitness is -0.804 ± 0.21.

With E64T, the abundance fitness is -0.006 ± 0.13.

As to E64M, the abundance fitness is -0.085 ± 0.1.

As for E64L, the abundance fitness is -0.01 ± 0.048.

Consider E64H, for which the abundance fitness was -0.339 ± 0.18.

Consider E64K, for which the abundance fitness is -0.295 ± 0.1.

E64A: the abundance fitness was -0.206 ± 0.16.

On to Y42I, for which the abundance fitness was -0.844 ± 0.35.

Y42G: the abundance fitness was -0.824 ± 0.089.

Take Y42H: the abundance fitness was -0.557 ± 0.12.

With Y42M, the abundance fitness was -0.684 ± 0.13.

Regarding Y42T, the abundance fitness was -0.561 ± 0.09.

For Y42A, the abundance fitness is -1.05 ± 0.22.

In the case of Y42S, the abundance fitness is -0.525 ± 0.093.

On to V51L, for which the abundance fitness is 0.026 ± 0.046.

These data come from the Human Domainome abundance scans (Beltran et al. 2025).
